Some targets named below: rVSV-Delta spike (SARS-CoV-2 Delta, UniProt P0DTC2 14-1252); rVSV-G614 spike (SARS-CoV-2, UniProt P0DTC2 14-1252); rVSV-Omicron spike (SARS-CoV-2 Omicron, UniProt P0DTC2 14-1252).
Holding throughout (assay): cell-based or functional assay

B1: LJI_491-39 (2E6) (antibody, V domains shown)
VH: EVQLVQSGGGLVQPGGSLKLSCAASGFTFSGSAMHWVRQASGKGLEWVGHIRSKANSYATAYAASKGRFTISRDDSKNTAYLQMNSLKTEDTAVYYCTREDIVGVPVAKDWFDPWGQGTLVTVS
VL: DIQMTQSPSSLFASVGDRVTITCRASQSISSYLNWYQQKPGKAPKLLIYAASSLQSGVPSRFSGSGFGTDFTLTISSLQPEDFATYYCQQSYSTLSITFGQGTRLEIKR
As for B1, the “IC50 (ng/mL), neutralization of rVSV-Delta pseudovirions on Vero cells” value with rVSV-Delta spike was found to be 324 ng/mL. Besides, in the experiment with rVSV-G614 spike, the “IC50 (ng/mL), neutralization of rVSV-G614 pseudovirions on Vero cells” value came out at 15 ng/mL. Besides, in the experiment with rVSV-Omicron spike, the “IC50 (ng/mL), neutralization of rVSV-Omicron pseudovirions on Vero cells” value amounted to 88 ng/mL.

B2: LJI_491-27 (1C3) (antibody, V domains shown)
VH: QVQLLESGGGLVQPGRSLRLSCAASGFTFDDYAMHWVRQPPGKGLEWVSGSSWNSGSVVYADSVKGRFTISRDSAKNSLHLQMNSLRVEDTALYYCAKAVDPTRGSYSPDYGFDIWGQGTMVTVS
VL: not shown
As for B2, the “IC50 (ng/mL), neutralization of rVSV-Delta pseudovirions on Vero cells” value with rVSV-Delta spike was determined as 12 ng/mL. Further, the “IC50 (ng/mL), neutralization of rVSV-G614 pseudovirions on Vero cells” value in the experiment with rVSV-G614 spike came out at 8 ng/mL. For the same molecule, in the experiment with rVSV-Omicron spike, the “IC50 (ng/mL), neutralization of rVSV-Omicron pseudovirions on Vero cells” value is 3 ng/mL.

(Values after US20250382353A1 (LA JOLLA INSTITUTE FOR IMMUNOLOGY, published 2025).)
